The record followed here is article PMC13170346.

Data set [1] concerns the target T1, His6-PomZ (Myxococcus xanthus (DK1622?)) (UniProt Q1DEM0).
T1 sequence: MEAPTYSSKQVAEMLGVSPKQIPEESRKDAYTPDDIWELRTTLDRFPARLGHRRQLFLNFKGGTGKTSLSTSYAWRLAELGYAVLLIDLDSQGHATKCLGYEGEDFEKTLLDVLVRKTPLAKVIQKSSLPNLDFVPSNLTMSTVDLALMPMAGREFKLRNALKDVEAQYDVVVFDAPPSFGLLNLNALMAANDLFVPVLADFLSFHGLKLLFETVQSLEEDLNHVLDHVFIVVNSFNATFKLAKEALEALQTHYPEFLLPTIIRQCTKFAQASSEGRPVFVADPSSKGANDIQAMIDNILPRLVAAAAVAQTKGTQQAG
Nature of the data set: BLI. As to conditions: 5' biotin-TEG on both strands; BLI: 50 mM HEPES/NaOH pH 7.2, 50 mM KCl, 0.1 mM EDTA, 10% glycerol, 10 mM MgCl2, 1 mM β-mercaptoethanol, 0.05% Tween 20, 1 mM …; 100 nM DNA loaded; assay temp.

Data set [2] addresses T2, PomY624-682-mCh (gD domain) (Myxococcus xanthus (DK1622?)) (UniProt Q1DEM1).
T2 sequence: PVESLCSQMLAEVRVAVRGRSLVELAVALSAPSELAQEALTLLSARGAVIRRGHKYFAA
Nature of the data set: BLI. The settings on record: 5' biotin-TEG on both strands; BLI: 50 mM HEPES/NaOH pH 7.2, 50 mM KCl, 0.1 mM EDTA, 10% glycerol, 10 mM MgCl2, 1 mM β-mercaptoethanol, 0.05% Tween 20, 1 mM …; 100 nM DNA loaded; assay temp.

Data set [3] has as its target PomZ (Myxococcus xanthus) (UniProt Q1DEM0).
In data set [4] the test system is His6-PomZ (Myxococcus xanthus (DK1622?)). The data set can be described thus: BLI. The settings on record: 1 mM ATP, 10 mM MgCl2; 5' biotin-TEG on both strands; BLI: 50 mM HEPES/NaOH pH 7.2, 50 mM KCl, 0.1 mM EDTA, 10% glycerol, 10 mM MgCl2, 1 mM β-mercaptoethanol, 0.05% Tween 20, 1 mM ATP; 100 nM DNA loaded; assay ….

Usually Kd stands for the concentration at which binding is half-saturated. A low value points to a tighter complex.

For the substance “GGGCCACCAAGCCCACCGCCGGCTCCAAGCGGCGGCGCCTGGAAGGCAAGAAGCGCACCTCCGAAAAAAAGGCCCTGAGAAACAGCAAATCCGGCTGGTGACCCAGGGTCCATCAGGACTCCAGTCACCCTGTCGCCGGACAGTCAGGGTGCGCCTAAAGTTTGCGAGCTCGCAGACGTTGCGAGGTCATCTGCTGCTCGCAGGGACCTCCTCCTGGGAATTTGCC (double strand) [cluster3 promoter PCR fragment]”, the dissociation constant (Kd) in data set [1] came to 24.3 µM. Also, in data set [2], the binding result was “no binding”. As to “His6-Sumo-PomY^496-682-mCh (domain or fragment)”, the specific His6-PomZ ATPase activity (NADH-coupled assay, 4 µM His6-PomZ, with DNA) with purified Sumo-PomY^496-682-mCh, 2 to 10 µM (ATP h^-1 µM^-1) in data set [3] came out at 11.6.

As for cluster3 promoter PCR fragment, the Kd in data set [4] was 24.3 µM. This lies in the double-digit micromolar range.
